Three molecules from patent US20150010574A1 (Boehringer Ingelheim, published 2015) can be followed below.

The target in assay [1] is T1, rat IGF-1 (rat, UniProt P08025 49-118).
T1 construct: Bought recombinant protein
Kind of assay: direct ELISA, rat IGF-1 coated on the plate, anti-human IgG-HRPO, OD 450 nm. On the technique in general: An ELISA detects its analyte on a solid surface through an enzyme-linked reagent.
Procedure: (§1) Fully human IgG1 antibodies that bound with high affinity to IGF-1 are also tested for binding to human IGF-1 in direct immunosorbent assays (ELISA). Assays are performed by coating human IGF-1 (R&D Systems, No. 291-G1) to 96-well Maxisorb plates at a concentration of 0.5 μg/ml overnight at 4° C. (100 μl/well). Coating buffer alone is used as a control for unspecific binding. Wells are then washed once with washing buffer (1×TBS-T) and residual binding sites are blocked with 200 μl blocking buffer for 1 hour at room temperature on an orbital shaker followed by a further wash cycle. Serial three-fold dilutions of each test antibody in blocking buffer are prepared directly on the coated plates. […] Blocking buffer alone is used as a positive control. The plates are then incubated for 2 hours at room temperature with agitation. After three wash cycles 100 μl/well of HRPO-conjugated anti-human IgG secondary reagent (Jackson ImmunoResearch Inc.) diluted in blocking buffer is added to all wells. After 2 hours incubation at room temperature with agitation the plates are washed three-times and 100 μl/well of TMB substrate solution (equal amounts of solution A and B) are pipetted into all wells. […] The absorbance is measured at a wavelength of 450 nm (reference 650 nm).

Assay [2] has as its target T2, human IGF-2 (human, UniProt P01344 25-91). As to the kind of experiment: cell-based or functional assay.
The target of assay [3] is T3, human IGF-1 (human, UniProt P05019 49-118). Kind of assay: cell-based or functional assay.
The target of assay [4] is T3, human IGF-1. As to the kind of experiment: electrochemiluminescence-based equilibrium titration (BioVeris).
For assay [5], the target named is T4, mouse IGF-1 (mouse, UniProt P05017 49-118).
T4 construct: Bought recombinant protein; also called murine IGF-1
As to the kind of experiment: direct ELISA, mouse IGF-1 coated on the plate, anti-human IgG-HRPO, OD 450 nm.
Procedure: as §1

The target of assay [6] is T5, mouse IGF-2 (mouse, UniProt P09535 25-91).
T5 construct: Bought recombinant protein; also called murine IGF-2
As to the kind of experiment: direct ELISA, mouse IGF-2 coated on the plate, anti-human IgG-HRPO, OD 450 nm.
Procedure: as §1

Assay [7] deals with T6, rat IGF-2 (rat, UniProt P01346 25-91).
T6 construct: Bought recombinant protein
As to the kind of experiment: direct ELISA, rat IGF-2 coated on the plate, anti-human IgG-HRPO, OD 450 nm.
Procedure: as §1

For a further assay, the target named is T7, human insulin (human, UniProt P01308 25-54; P01308 90-110).
T7 construct: Bought (Roche); coated at 3 ug/ml in the ELISA
As to the kind of experiment: direct ELISA, human insulin coated at 3 ug/ml, anti-human IgG-HRPO, OD 450 nm.

For assay [8], the target named is T2, human IGF-2. As to the kind of experiment: SPR (Biacore 3000), antibody captured by anti-human Fc, IGF antigen flowed, 25 C. For orientation: Surface plasmon resonance follows binding to a sensor surface in real time, without labels.
Procedure: (§2) The sensor chip is coated with approximately 1000 RU of the reference antibody in flow cell 1 and approximately 1000 RU of a rabbit-anti-human Fc-gamma-specific antibody in flow cell 2 using the coupling reagents from an amine coupling kit. A target of 1000 RU is set in the surface preparation wizard of the Biacore 3000 software at a flow rate of 5 μl/min Running buffer used is HBS-EP. […] Blank runs using running buffer only are run in-between. A blank run curve is subtracted from each binding curve before affinity analysis. Data evaluation is performed using the BIAevaluation software (version 4.1, Biacore, Freiburg, Germany). The dissociation and association phases of the kinetics are fitted separately. For the separate fit of the kdiss values a time-frame of the initial 200-300 seconds in the dissociation phase is used (range of steady decrease of signal). For the separate fit of the kₐₛₛ values, initial time frames of approx 100 seconds are used (range of steady increase of signal) and for calculation the individual kdiss values are used with the 1:1 Langmuir association model. The average values with the standard deviations of the kinetic data together with the corresponding dissociation (KD) and association (KA) constants are calculated.
The target of assay [9] is T4, mouse IGF-1. The description is as above.
Procedure: as §2
For assay [10], the target named is T3, human IGF-1. The assay is described as above.
Procedure: as §2
Assay [11] deals with T6, rat IGF-2. The assay is described as above.
Procedure: as §2
Assay [12] concerns the target T5, mouse IGF-2. The description is as above.
Procedure: as §2
Assay [13] concerns the target T1, rat IGF-1. The description is as above.
Procedure: as §2
In assay [14] the target is T2, human IGF-2. Kind of assay: cell-based or functional assay. The source holds these as a separate data set.
Assay [15] has as its target T3, human IGF-1. Kind of assay: cell-based or functional assay. The source holds these as a separate data set.
In assay [16] the target is T2, human IGF-2. As to the kind of experiment: cell-based or functional assay. This is another data set of the same source.

T6 sequence (P01346 25-91 limits assumed): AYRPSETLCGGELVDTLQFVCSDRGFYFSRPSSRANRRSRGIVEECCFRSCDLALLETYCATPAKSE
T1 sequence (P08025 49-118 limits assumed): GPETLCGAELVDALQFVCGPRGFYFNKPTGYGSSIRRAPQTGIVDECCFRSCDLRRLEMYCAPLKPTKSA
T7 sequence (P01308 25-54 limits assumed, chain 1 of 2): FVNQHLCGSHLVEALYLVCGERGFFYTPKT
T7 sequence (P01308 90-110 limits assumed, chain 2 of 2): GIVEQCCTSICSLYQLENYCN
T5 sequence (P09535 25-91 limits assumed): as the sequence (P01346 25-91 limits assumed) above, with R3G, S5G counted along it
T3 sequence (P05019 49-118): as the sequence (P08025 49-118 limits assumed) above, with P20D, I35S, T67A counted along it
T4 sequence (P05017 49-118 limits assumed): as the sequence (P08025 49-118 limits assumed) above, with S69A counted along it
T2 sequence (P01344 25-91 limits assumed): as the sequence (P01346 25-91 limits assumed) above, with S22G, S32A, A35V, N36S counted along it
Procedure for human insulin: Fully human IgG1 antibodies that bound with high affinity to IGF-1 are also tested for binding to human IGF-1 in direct immunosorbent assays (ELISA). Assays are performed by coating human IGF-1 (R&D Systems, No. 291-G1) to 96-well Maxisorb plates at a concentration of 0.5 μg/ml overnight at 4° C. (100 μl/well). Coating buffer alone is used as a control for unspecific binding. Wells are then washed once with washing buffer (1×TBS-T) and residual binding sites are blocked with 200 μl blocking buffer for 1 hour at room temperature on an orbital shaker followed by a further wash cycle. Serial three-fold dilutions of each test antibody in blocking buffer are prepared directly on the coated plates. […] Blocking buffer alone is used as a positive control. The plates are then incubated for 2 hours at room temperature with agitation. After three wash cycles 100 μl/well of HRPO-conjugated anti-human IgG secondary reagent (Jackson ImmunoResearch Inc.) diluted in blocking buffer is added to all wells. After 2 hours incubation at room temperature with agitation the plates are washed three-times and 100 μl/well of TMB substrate solution (equal amounts of solution A and B) are pipetted into all wells. The plates are incubated for 10-20 min at RT with agitation and then the reaction is stopped by addition of 100 μl/well 1 M phosphoric acid. The absorbance is measured at a wavelength of 450 nm (reference 650 nm).

B1: antibody 60814 (antibody, human IgG1, lambda, V domains shown)
VH: QVELVESGGGLVQPGGSLRLSCAASGFTFSNYWMHWVRQAPGKGLEWVSGISGWSSWTYYADSVKGRFTISRDNSKNTLYLQMNSLRAEDTAVYYCARFGIDAYTKVYFDYWGQGTLVTVSS
VL: DIELTQPPSVSVAPGQTARISCSGDNIPLKYVSWYQQKPGQAPVLVIHDDNKRPSGIPERFSGSNSGNTATLTISGTQAEDEADYYCSSWDTLDIFNVFGGGTKLTVLG
notes: Fully human IgG1 with Ig lambda light chain
One may read the Kd as the concentration at which binding is half-saturated. On to B1, for which the binding result is “binds” with rat IGF-1 [1]; “binds” with mouse IGF-1 [5]; “binds” with mouse IGF-2 [6]; “binds” in the assay with rat IGF-2 [7]; “no binding (tested: 50 ng/mL)” in the assay with human insulin. For the same molecule, the “IC50 of IGF-2 induced COLO 205 cell proliferation” value with human IGF-2 [2] came out at 0.576 µg/mL. For the same molecule, the “IC50 of IGF-2 induced MCF7 cell proliferation” value with human IGF-2 [2] was determined as 0.0782 µg/mL. Besides, the “IC50 of IGF-1 induced COLO-205 cell proliferation” value with human IGF-1 [3] amounted to 0.135 µg/mL. Moreover, in the assay with human IGF-1 [3], the “IC50 of IGF-1 induced MCF7 cell proliferation” value turned out to be 0.0241 µg/mL. In addition, the affinity with human IGF-1 [4], expressed as Kd, was 0.18 nM.

B2: antibody 60819 (antibody, human IgG1, lambda, V domains shown)
VH: QVELVESGGGLVQPGGSLRLSCAASGFTFSNYWMHWVRQAPGKGLEWVSGISGWSSWTYYADSVKGRFTISRDNSKNTLYLQMNSLRAEDTAVYYCARFGIDAYTKVYFDYWGQGTLVTVSS
VL: DIELTQPPSVSVAPGQTARISCSGDNIPLKYVSWYQQKPGQAPVLVIHDDNKRPSGIPERFSGSNSGNTATLTISGTQAEDEADYYCQSYDYFPKFVVFGGGTKLTVLG
notes: as for B1
As to B2, the binding result in the assay with rat IGF-1 [1] is recorded as “binds”; in the assay with mouse IGF-1 [5] it was “binds”; with mouse IGF-2 [6], “binds”; with rat IGF-2 [7], “binds”; with human insulin, “no binding (tested: 50 ng/mL)”. Moreover, the “IC50 of IGF-2 induced COLO 205 cell proliferation” value with human IGF-2 [2] is 0.101 µg/mL. Moreover, the “IC50 of IGF-2 induced MCF7 cell proliferation” value with human IGF-2 [2] was determined as 0.0408 µg/mL. In addition, in the assay with human IGF-1 [3], the “IC50 of IGF-1 induced COLO-205 cell proliferation” value was determined as 0.217 µg/mL. The “IC50 of IGF-1 induced MCF7 cell proliferation” value in the assay with human IGF-1 [3] came to 0.054 µg/mL. Further, binding with human IGF-1 [4] was put at a Kd of 0.19 nM.

B3: antibody 60833 (antibody, human IgG1, lambda, V domains shown)
VH: QVELVESGGGLVQPGGSLRLSCAASGFTFTSYWMSWVRQAPGKGLELVSSITSYGSFTYYADSVKGRFTISRDNSKNTLYLQMNSLRAEDTAVYYCARNMYTHFDSWGQGTLVTVSS
VL: DIVLTQPPSVSGAPGQRVTISCSGSSSNIGSNSVSWYQQLPGTAPKLLIYDNSKRPSGVPDRFSGSKSGTSASLAITGLQSEDEADYYCQSRDTYGYYWVFGGGTKLTVLG
notes: as for B1
As usually defined, the koff is the first-order rate constant of dissociation. A low value points to a long-lived complex. As usually defined, the kon is the second-order rate constant of association. Read a low kon as slower complex formation. For B3, the “IC50 of IGF-2 induced COLO 205 cell proliferation” value in the assay with human IGF-2 [2] came to 0.632 µg/mL. Moreover, in the assay with human IGF-2 [2], the “IC50 of IGF-2 induced MCF7 cell proliferation” value was determined as 0.0812 µg/mL. Also, in the assay with human IGF-1 [3], the “IC50 of IGF-1 induced COLO-205 cell proliferation” value was determined as 0.165 µg/mL. Further, the “IC50 of IGF-1 induced MCF7 cell proliferation” value with human IGF-1 [3] was found to be 0.0386 µg/mL. Moreover, the Kd in the assay with human IGF-2 [8] stood at 0.913 nM; with mouse IGF-1 [9] it was 0.33 nM; in the assay with human IGF-1 [10], 0.07 nM; with rat IGF-2 [11], 2.41 nM; with mouse IGF-2 [12] it was 13.4 nM; with rat IGF-1 [13], 0.07 nM. Besides, the Kd with human IGF-1 [4] was found to be 0.13 nM. Besides, the koff stood at 0.00353 s⁻¹ with human IGF-2 [8]; 0.000323 s⁻¹ with mouse IGF-1 [9]; 0.000301 s⁻¹ with human IGF-1 [10]; 0.00613 s⁻¹ with rat IGF-2 [11]; 0.011 s⁻¹ with mouse IGF-2 [12]; 0.000253 s⁻¹ with rat IGF-1 [13]. Also, the kon worked out at 3.97e+06 M⁻¹ s⁻¹ in the assay with human IGF-2 [8]; 1e+06 M⁻¹ s⁻¹ in the assay with mouse IGF-1 [9]; 4.74e+06 M⁻¹ s⁻¹ with human IGF-1 [10]; 2.56e+06 M⁻¹ s⁻¹ with rat IGF-2 [11]; 868000 M⁻¹ s⁻¹ with mouse IGF-2 [12]; 3.81e+06 M⁻¹ s⁻¹ with rat IGF-1 [13]. Moreover, the “IC50 of IGF-2 (100 ng/mL) induced IGF-1R phosphorylation, cell based ELISA” value with human IGF-2 [14] amounted to 1.12 µg/mL. Further, the “IC50 of IGF-1 (20 ng/mL) induced IGF-1R phosphorylation, cell based ELISA” value in the assay with human IGF-1 [15] was 0.09 µg/mL. Further, the “IC50 of IGF-2 (100 ng/mL) induced IR-A phosphorylation, cell based ELISA” value with human IGF-2 [16] worked out at 0.82 µg/mL. For the same molecule, the binding result in the assay with human insulin is “no binding (tested: 50 ng/mL)”.
